± gives the standard error. For some assays here: Fewer inactive variants are shown than the library holds.
B1: glmS ribozyme (parent)
chain: AUAAAAGCGCCAGAACUACAGAAAUGUAGUUGACGAGGAGGAGGUUUAUCGAAUUUUCGGCGGAUGCCUCCAAA

What was measured:
Settings in all cases: with glucosamine-6-phosphate
glucosamine-6-phosphate [1] = variants of: B1; experiment: kcat; higher = faster cleavage; RNA array
Method in brief: (§1)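 Tiles of sequenced MiSeq chips were imaged over ~14 h at 37 °C. On them, barcoded ribozyme variants had been transcribed in situ by E. coli RNA polymerase and were tracked via a hybridised Cy3 probe while glucosamine-6-phosphate (40 μM to 10 mM) in HEPES/KCl/Mg(OAc)2 buffer flowed in. Per-tile medians, normalised to baseline and to non-cleaving reference variants, were fit to one- or two-exponential decays for kobs, and weighted Michaelis–Menten fits gave kcat and KM.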

glucosamine-6-phosphate [2] = variants of: B1; experiment: self-cleavage kobs at 10000 uM GlcN6P; higher = faster cleavage; RNA array
Method in brief: as §1

glucosamine-6-phosphate [3] = variants of: B1; experiment: self-cleavage kobs at 640 uM GlcN6P; higher = faster cleavage; RNA array
Method in brief: as §1

glucosamine-6-phosphate [4] = variants of: B1; experiment: KM; higher = weaker cofactor use; RNA array
Method in brief: as §1

glucosamine-6-phosphate [5] = variants of: B1; experiment: self-cleavage kobs at 40 uM GlcN6P; higher = faster cleavage; RNA array
Method in brief: as §1

glucosamine-6-phosphate [6] = variants of: B1; experiment: self-cleavage kobs at 160 uM GlcN6P; higher = faster cleavage; RNA array
Method in brief: as §1

glucosamine-6-phosphate [7] = variants of: B1; experiment: self-cleavage kobs at 2500 uM GlcN6P; higher = faster cleavage; RNA array
Method in brief: as §1

| Variant | kcat (glucosamine-6-phosphate [1]) [s⁻¹] | self-cleavage kobs at 10000 uM GlcN6P (glucosamine-6-phosphate [2]) [s⁻¹] | self-cleavage kobs at 640 uM GlcN6P (glucosamine-6-phosphate [3]) [s⁻¹] | KM (glucosamine-6-phosphate [4]) [µM] | self-cleavage kobs at 40 uM GlcN6P (glucosamine-6-phosphate [5]) [s⁻¹] | self-cleavage kobs at 160 uM GlcN6P (glucosamine-6-phosphate [6]) [s⁻¹] | self-cleavage kobs at 2500 uM GlcN6P (glucosamine-6-phosphate [7]) [s⁻¹] |
| --- | --- | --- | --- | --- | --- | --- | --- |
| G37C U54C | 6.94e-05 ± 3e-05 | 3.48e-05 ± 7.4e-06 | – | – | – | – | – |
| G43A U56A | 1.8e-05 ± 3.9e-06 | – | – | – | – | – | – |
| G29A G60C | < 1e-05 | < 1e-05 | < 1e-05 | – | – | – | – |
| A14C U31G | 0.0249 ± 0.0019 | 0.0194 ± 0.0031 | 0.00494 ± 0.00094 | 2550 ± 250 | 0.000384 ± 5.3e-05 | 0.00145 ± 0.00024 | 0.0154 ± 0.0047 |
| A12C A15U C16U C70U | 0.000185 ± 1.8e-05 | 0.000188 ± 4.7e-05 | 9.57e-05 ± 2.2e-05 | 514 ± 130 | – | 5.1e-05 ± 1.8e-05 | 0.000148 ± 5e-05 |
| G9A C34G C67A | < 1e-05 | – | – | – | – | – | < 1e-05 |
| A14G A42C | 3.47e-05 ± 2.4e-06 | 2.99e-05 ± 1e-05 | – | 1730 ± 410 | – | – | 1.97e-05 ± 9.6e-06 |
| A12C C67G | 0.00173 ± 0.00067 | 0.00265 ± 0.00032 | 0.000444 ± 5.8e-05 | – | 6.89e-05 ± 6e-06 | 0.000199 ± 2.4e-05 | 0.00106 ± 0.00012 |
| U49C C50U | < 1e-05 | < 1e-05 | – | – | < 1e-05 | – | – |
| C11U C58A | 5.6e-05 ± 2e-06 | 5.15e-05 ± 8.2e-06 | – | 753 ± 170 | – | – | 4.48e-05 ± 1.1e-05 |
| C8U C58U C68A | 2.49e-05 ± 7.3e-06 | – | – | – | – | – | < 1e-05 |
| U49G A53G A64G C67A | 0.000753 ± 0.0002 | 0.000669 ± 0.00013 | 0.00016 ± 2.3e-05 | 2220 ± 890 | 3.28e-05 ± 1.1e-05 | 5.27e-05 ± 1.4e-05 | 0.000369 ± 7.9e-05 |
| A14U U65G | 0.00172 ± 0.00014 | 0.00144 ± 0.00018 | 0.000431 ± 4.8e-05 | 2120 ± 250 | 2.77e-05 ± 8e-06 | 0.000118 ± 1.7e-05 | 0.000875 ± 0.00012 |
| U55A C58A | 0.000722 ± 7.6e-05 | 0.000491 ± 7.2e-05 | 9.44e-05 ± 2e-05 | 4620 ± 800 | – | – | 0.000254 ± 4.5e-05 |
| U49A C67U | < 1e-05 | < 1e-05 | – | – | < 1e-05 | – | – |
| G13U A14G C61A | 1.4e-05 ± 5.4e-06 | – | – | – | < 1e-05 | – | – |
| U30A C67U | 0.00166 ± 0.00065 | 0.00106 ± 0.00034 | 0.00036 ± 6.4e-05 | – | 5.62e-05 ± 1.2e-05 | 0.000105 ± 2.1e-05 | 0.00118 ± 0.00017 |
| A15C U49G | 0.000113 ± 1.2e-05 | 9.51e-05 ± 1.9e-05 | – | 1520 ± 550 | – | – | 8.06e-05 ± 2.4e-05 |
